According to article PMC7710356, “RNF41 regulates the damage recognition receptor Clec9A and antigen cross-presentation in mouse dendritic cells” (eLife, 2020):

Tests used:
[1] = molecular target: T1, FLAG-tagged recombinant human CLEC9A ecto-domains (hCLEC9A-ecto) (human, UniProt Q6UXN8 57-241); experiment: ELISA; plates coated with GST-RNF41-C, GST-RNF41-RBC or GST (10 μg/ml); FLAG-tagged Clec ectodomains 10 to 0.04 μg/ml in solution; detected with anti-FLAG HRP; settings: both partners purified
T1 construct: human CLEC9A, full extracellular region (ecto) including the CTLD and stalk; also called human wild-type CLEC9A

[2] = molecular target: T2, mutant CLEC9A ectodomain (hCLEC9A W131A, W227A) (human, UniProt Q6UXN8 57-241, W131A | W227A); experiment: as above; settings: both partners purified
T2 construct: human CLEC9A extracellular region (ecto) with W131A and W227A in the CTLD; Same construct as m2 with the two tryptophan mutations; also called hCLEC9A-ecto (W->A); hCLEC9A-ecto W->A
T2 sequence (Q6UXN8 57-241 W131A/W227A): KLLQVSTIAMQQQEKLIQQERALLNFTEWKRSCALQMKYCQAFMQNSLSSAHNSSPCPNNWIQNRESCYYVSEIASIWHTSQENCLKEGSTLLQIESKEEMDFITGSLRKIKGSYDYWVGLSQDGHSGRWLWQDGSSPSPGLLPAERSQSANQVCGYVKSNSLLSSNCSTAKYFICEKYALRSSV

T1 sequence (Q6UXN8 57-241): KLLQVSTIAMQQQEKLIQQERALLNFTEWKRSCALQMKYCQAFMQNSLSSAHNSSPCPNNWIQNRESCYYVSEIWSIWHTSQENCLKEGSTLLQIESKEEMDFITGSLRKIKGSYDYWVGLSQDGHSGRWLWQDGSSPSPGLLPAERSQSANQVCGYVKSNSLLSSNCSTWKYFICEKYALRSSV

B1: GST-tagged RNF41 C-terminal domain (RNF41-C) (domain or fragment, human, UniProt Q9H4P4 169-317, looked up)
chain: DIQLLKAYMRAIRSVNPNLQNLEETIEYNEILEWVNSLQPARVTRWGGMISTPDAVLQAVIKRSLVESGCPASIVNELIENAHERSWPQGLATLETRQMNRRYYENYVAKRIPGKQAVVVMACENQHMGDDMVQEPGLVMIFAHGVEEI
notes: RNF41 C-terminal domain; region 169-DIQL…VEEI-317; Cloned into a modified pGEX-2T vector; also called GST-RNF41-C; source: E. coli BL21 DE3, purified (Glutathione-Sepharose, SEC)
binding result [1]: binds | binding result [2]: binds
